Consider two substances from PMC5436847.

Data set [1] concerns P34 F141A (Trypanosoma brucei). As to the kind of experiment: filter binding. As to conditions: Filter binding: 10 mM Tris pH 7.4, 1 mM EDTA, 100 mM NaCl, 100 ug/ml BSA, 30 min, room temperature; 0.05 nM 5S rRNA, 0-300 nM protein; Bmax fixed at 100%.
Data set [2] relates to P34 N-terminus-RRM1 (lacks RRM2 and C-terminus) (Trypanosoma brucei). As to the kind of experiment: filter binding. The note with it: Filter binding: 10 mM Tris pH 7.4, 1 mM EDTA, 100 mM NaCl, 100 ug/ml BSA, 30 min, room temperature; 0.05 nM 5S rRNA, 0-300 nM protein; Bmax fixed at 100%.
For data set [3], the system named is P34 N-terminus-RRM1-RRM2 (lacks C-terminus) (Trypanosoma brucei). Description: filter binding. The note with it: Filter binding: 10 mM Tris pH 7.4, 1 mM EDTA, 100 mM NaCl, 100 ug/ml BSA, 30 min, room temperature; 0.05 nM 5S rRNA, 0-300 nM protein; Bmax fixed at 100%.
Data set [4] has as its system P34 R91A, Y92A (Trypanosoma brucei). As to the kind of experiment: filter binding. As to conditions: Filter binding: 10 mM Tris pH 7.4, 1 mM EDTA, 100 mM NaCl, 100 ug/ml BSA, 30 min, room temperature; 0.05 nM 5S rRNA, 0-300 nM protein; Bmax fixed at 100%.
Data set [5] has as its system P34 RRM1 (Trypanosoma brucei). Description: filter binding. As to conditions: Filter binding: 10 mM Tris pH 7.4, 1 mM EDTA, 100 mM NaCl, 100 ug/ml BSA, 30 min, room temperature; 0.05 nM 5S rRNA, 0-300 nM protein; Bmax fixed at 100%.
Data set [6] relates to P34 RRM1-RRM2 (Trypanosoma brucei). As to the kind of experiment: filter binding. The note with it: Filter binding: 10 mM Tris pH 7.4, 1 mM EDTA, 100 mM NaCl, 100 ug/ml BSA, 30 min, room temperature; 0.05 nM 5S rRNA, 0-300 nM protein; Bmax fixed at 100%.
The subject of data set [7] is P34 RRM2 (Trypanosoma brucei). As to the kind of experiment: filter binding. As to conditions: Filter binding: 10 mM Tris pH 7.4, 1 mM EDTA, 100 mM NaCl, 100 ug/ml BSA, 30 min, room temperature; 0.05 nM 5S rRNA, 0-300 nM protein; Bmax fixed at 100%.
Data set [8] concerns P34 Y174A (Trypanosoma brucei). As to the kind of experiment: filter binding. As to conditions: Filter binding: 10 mM Tris pH 7.4, 1 mM EDTA, 100 mM NaCl, 100 ug/ml BSA, 30 min, room temperature; 0.05 nM 5S rRNA, 0-300 nM protein; Bmax fixed at 100%.
Data set [9] deals with P34 Y176A (Trypanosoma brucei). As to the kind of experiment: filter binding. The note with it: Filter binding: 10 mM Tris pH 7.4, 1 mM EDTA, 100 mM NaCl, 100 ug/ml BSA, 30 min, room temperature; 0.05 nM 5S rRNA, 0-300 nM protein; Bmax fixed at 100%.
Data set [10] relates to P34 Y60A (Trypanosoma brucei). As to the kind of experiment: filter binding. As to conditions: Filter binding: 10 mM Tris pH 7.4, 1 mM EDTA, 100 mM NaCl, 100 ug/ml BSA, 30 min, room temperature; 0.05 nM 5S rRNA, 0-300 nM protein; Bmax fixed at 100%.
Data set [11] relates to P34 Y92A (Trypanosoma brucei). As to the kind of experiment: filter binding. The note with it: Filter binding: 10 mM Tris pH 7.4, 1 mM EDTA, 100 mM NaCl, 100 ug/ml BSA, 30 min, room temperature; 0.05 nM 5S rRNA, 0-300 nM protein; Bmax fixed at 100%.
In data set [12] the test system is P34 full length (WT) (Trypanosoma brucei). As to the kind of experiment: filter binding. The note with it: Filter binding: 10 mM Tris pH 7.4, 1 mM EDTA, 100 mM NaCl, 100 ug/ml BSA, 30 min, room temperature; 0.05 nM 5S rRNA, 0-300 nM protein; Bmax fixed at 100%.
In data set [13] the target is P34 N-terminus-RRM1 truncate (P34 lacking both RRM2 and the C-terminus) (Trypanosoma brucei). Description: co-IP; immune capture: beads coated with anti-P34/P37 antibody incubated with the recombinant proteins (1 μg each) for 1 hr at 4°C, washed three times in PBS-T, eluted in SDS sample buffer; bound L5 (pellet) detected by western blot with anti-L5 antibody; pellet signal normalised to L5 + P34 FL, set to 1; at least three biological replicates.

Data set [14] deals with P34 N-terminus-RRM2 truncate (P34 lacking the C-terminus) (Trypanosoma brucei). Described as above.
In data set [15] the target is P34 R88-91A mutated protein (Trypanosoma brucei). The data set is described as above.
The target in data set [16] is P34 R88-91K mutated protein (Trypanosoma brucei). Described as above.
For data set [17], the target named is P34 R91A mutated protein (Trypanosoma brucei). The data set is described as above.
Data set [18] has as its target P34 R91A, Y92A mutated protein (Trypanosoma brucei). The data set is described as above.
Data set [19] has as its target P34 RRM1 truncate protein (Trypanosoma brucei). The description is as above.
Data set [20] deals with P34 RRM1-RRM2 truncate (the RRM domains alone) (Trypanosoma brucei). Described as above.
For data set [21], the target named is P34 RRM2 truncate protein (Trypanosoma brucei). Described as above.

For 5S rRNA, the binding signal (fold affinity increase vs WT) in data set [1], in data set [4], in [8], in [9], in [10] and in data set [11] was 2 throughout. Further, the Kd was 103 nM in [2]; 66 nM in [3]; 69 nM in [5]; 67 nM in data set [6]; 297 nM in data set [7]; 30 nM in data set [12].

For ribosomal protein L5 (natural protein), the amount of L5 bound relative to P34 full length (set as 1) (relative to P34 full length = 1) in [13] came out at 0.93; in data set [14] it was 1.1; in data set [19], 0.65; in [20], 0.64; in data set [21], 0.54. Moreover, the amount of L5 bound relative to P34 WT (set as 1) (relative to P34 WT = 1) in data set [15] is 0.45; in data set [16], 0.75; in data set [17], 1.3; in data set [18] it was 1.5.
